The values that follow come from US20040110170A1, “Cloning and characterization of calcitonin gene related peptide receptors” (priority 2002, published 2004).

Ends that are not written are not given here.

In one experiment the target is T1, JPr-CGRP receptor (Rattus norvegicus, UniProt O89039).
T1 construct: expressed in transfected cells; pCDL-Srα vector)
Put plainly: Adenylate Cyclase Stimulation assay (cAMP), NIH/3T3 cells stably expressing JPr-CGRP receptor. Type of experiment: cell-based. The conditions noted are these: assay not specified. The method, then: The cells were washed with 1 ml of a nutrient deficient DMEM solution (Gibco-BRL, Gaithersburg, Md.) to remove excess radioisotope and incubated for 10 minutes (37° Celsius). […] Peptide was added in 5 μL aliquots to 21 of the 24 wells with three receiving no peptide to serve as a baseline for stimulation. The remaining 21 wells were incubated at 37° Celsius with increasing concentrations of the indicated peptide and the response was measured.

Experiment [1] concerns vector control transfected HEK 293 cells. The conditions noted are these: cited from earlier work.
Experiment [2] deals with JPr-CGRP receptor (rat CGRP receptor, JPr-CGRP-R) (rat) (UniProt O89039). Put plainly: Radioligand binding inhibition; unlabelled CGRP against 50 pM 125I-CGRP on stably transfected NIH/3T3 cells.
Experiment [3] concerns the target Skb-CGRP receptor (previously reported human CGRP type 1 receptor, Skb-CGRP-R) (human) (UniProt Q16602). Described as above.

T1 sequence (O89039 whole entry): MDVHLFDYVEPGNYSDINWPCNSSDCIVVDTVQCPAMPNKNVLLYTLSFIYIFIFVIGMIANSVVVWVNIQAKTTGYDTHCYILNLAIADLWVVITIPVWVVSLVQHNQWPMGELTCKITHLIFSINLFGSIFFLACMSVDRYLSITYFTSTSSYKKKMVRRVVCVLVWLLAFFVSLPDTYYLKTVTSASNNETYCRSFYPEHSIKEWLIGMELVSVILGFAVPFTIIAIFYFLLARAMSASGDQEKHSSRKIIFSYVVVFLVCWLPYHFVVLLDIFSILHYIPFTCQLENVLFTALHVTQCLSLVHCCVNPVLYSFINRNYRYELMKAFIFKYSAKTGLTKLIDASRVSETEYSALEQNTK
Chain of Skb-CGRP receptor (previously reported human CGRP type 1 receptor, Skb-CGRP-R) (human) (Q16602 23-461): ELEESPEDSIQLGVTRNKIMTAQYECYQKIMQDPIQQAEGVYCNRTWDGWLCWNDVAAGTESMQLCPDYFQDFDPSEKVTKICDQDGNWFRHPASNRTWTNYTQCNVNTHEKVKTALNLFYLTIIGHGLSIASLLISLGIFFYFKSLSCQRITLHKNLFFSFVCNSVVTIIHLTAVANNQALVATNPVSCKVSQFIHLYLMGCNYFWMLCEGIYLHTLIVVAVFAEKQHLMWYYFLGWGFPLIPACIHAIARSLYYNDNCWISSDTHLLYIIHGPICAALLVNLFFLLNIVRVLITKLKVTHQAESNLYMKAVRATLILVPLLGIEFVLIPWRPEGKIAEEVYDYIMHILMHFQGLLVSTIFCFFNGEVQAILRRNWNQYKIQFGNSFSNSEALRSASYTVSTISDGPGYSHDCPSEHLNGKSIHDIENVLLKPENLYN
Chain of JPr-CGRP receptor (rat CGRP receptor, JPr-CGRP-R) (rat) (O89039 whole entry): as the sequence (O89039 whole entry) above

As to “Amylin: peptide related to CGRP, tested on the receptor (KCNTATCATQRLANFLVHSSNNFGAILSSTNVGSNTY; not fully specified (C-terminus, bridges); cysteine pairing not given here; UniProt P10997 34-70, looked up)”, the “response of the JPr-CGRP receptor to related peptides” value (from here on “response of the JPr-CGRP receptor”) in the experiment with JPr-CGRP receptor was “shows response”.
With Calcitonin, on JPr-CGRP receptor, the “response of the JPr-CGRP receptor” value is “shows response”.
For “human Calcitonin: human Calcitonin, has cross reactivity with the CGRP receptor (CGNLSTCMLGTYTQDFNKFHTFPQTAIGVGAP; not fully specified (C-terminus, bridges); ends and bridges not checked; UniProt P01258 85-116, looked up)”, in experiment [1], the “cAMP accumulation as % of the maximum cAMP induced by CGRP in Skb-CGRP-R transfected cells” value is 75%.
Take Calcitonin Gene Related Peptide (CGRP): the IC50 worked out at 0.0398 nM in experiment [2] and 0.501 nM in experiment [3].
Turning to Adrenomedullin: peptide related to CGRP, in the experiment with JPr-CGRP receptor, the “response of the JPr-CGRP receptor” value is given as “shows response”.
